These substances were tested against 3E1 Fab, P01857;P01834. Settings: parent: est. 100; read off a plot.

Substance | percent of parent
full-length, wild-type HA from A/Washington/05/2011 (H1N1) HA2:D19A | 100%
full-length, wild-type HA from A/Washington/05/2011 (H1N1) HA1:H18L | 100%
full-length, wild-type HA from A/Washington/05/2011 (H1N1) HA1:H38S | 97%
full-length, wild-type HA from A/Washington/05/2011 (H1N1) HA2:Y34M | 100%

— article PMC5477490
